One may read the Kd as the equilibrium constant for the complex coming apart.

The record followed here is patent US20160348113, “RNA APTAMERS AGAINST BAFF-R AS CELL-TYPE SPECIFIC DELIVERY AGENTS AND METHODS FOR THEIR USE” (CITY OF HOPE, published 2016).

For data set [1], the target named is T1, BAFF-R (B-cell activating factor receptor, TNFRSF13C) (Homo sapiens, UniProt Q96RJ3 Q96RJ3:1-76).
T1 sequence: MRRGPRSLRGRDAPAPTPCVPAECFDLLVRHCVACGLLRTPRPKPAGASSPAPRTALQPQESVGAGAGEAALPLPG
Nature of the data set: EMSA; about; UU linker. The note with it: tags: ProSpect (Israel), human recombinant; label: 32P. Here is the method: (§1) The binding activities of the RNA pools were further confirmed by gel shift assays. Briefly, the BAFF-R protein was serially diluted to the desired concentrations (0˜2560 nM). A constant amount of P³² end-labeled RNA (2 nM) was used. The binding reaction was performed as described above. After incubation, 25 μL of binding reaction was loaded into a 5% non-denaturing polyacrylamide gel. Following electrophoresis the gel was exposed to a Phosphor image screen and the radioactivity was quantified using a Typhoon scanner. The dissociation constants were calculated using non-linear curve regression with a Graph Pad Prism. […] The dissociation constants (Kd) for selected aptamers (R-1, R-2 and R-14) with the target protein were calculated from a native gel mobility shift assay (FIG. 16A).
(§2) Binding affinities were also assessed by flow cytometry (FIG. 28). […] To determine if the bound chimeras were internalized in the BAFF-R expressing cells, out Z-axis confocal microscopy was performed with Jeko-1 cells and CEM control cells incubated with Cy3-labeled transcripts as described above. […] To visualize the nucleus, the cells were stained with the nuclear dye Hoechst 33342 after incubation with Cy3-RNA.
On the technique in general: A gel shift assay detects complexes by their altered migration in electrophoresis.

Data set [2] addresses T1, BAFF-R (B-cell activating factor …). Nature of the data set: EMSA; 8U linker. The note with it: tags: ProSpect (Israel), human recombinant; label: 32P. Here is the method:
as §1
(§3) The binding affinities of the chimeras for BAFF-R protein were assessed by gel shift assay (FIG. 40C and FIG. 49A). […] To determine whether the bound chimera is internalized by BAFF-R expressing cells, real-time Z-axis confocal microscopy was performed (FIG. 41A-C and FIG. 49B). The Cy3-labeled chimeras were successfully internalized into BAFF-R expressing cells (Jeko-1 and Z138) after 5 h post treatment.

For data set [3] the target is unchanged. Nature of the data set: EMSA; high-salt binding buffer; about. The note with it: tags: ProSpect (Israel), human recombinant; label: 5'-32P or Cy3. Here is the method:
(§4) Filter binding assays were used to detect the binding affinity of the individual aptamers. The RNA pool was treated with Calf Intestinal Phoshatase (CIP) to remove the initiating 5′-triphosphate and labeled with γ-³²P-ATP by T4 polynucleotide kinase and the end-labeled RNA pool (10 nM) was incubated with BAFF-R protein (100 nM) and a 10-fold molar excess of nonspecific competitor tRNA (100 nM) in the high-salt RNA binding buffer for 30 min. A 50 μL of binding reaction was separated by a pre-wet nitrocellulose filter. After the filter was washed with 2 mL binding buffer, the radioactivity retained on the filter was counted by a multi-purpose scintillation counter (Beckman Coulter).
as §1, with “After incubation, 25 μL of binding reaction was loaded into a 5% non-denaturing polyacrylamide gel.” left out

The target is the same in data set [4]. Nature of the data set: EMSA; high-salt binding buffer (10 mM HEPES pH 7.4, 150 mM NaCl, 1 mM CaCl2, 1 mM MgCl2, tRNA); about. The note with it: tags: ProSpect (Israel), human recombinant; label: 5'-32P or Cy3. Here is the method: as §4
as §1, with “After incubation, 25 μL of binding reaction was loaded into a 5% non-denaturing polyacrylamide gel.” left out

For data set [5] the target is unchanged. Nature of the data set: EMSA; parental R-1 in STAT3 chimera comparison. As to conditions: tags: ProSpect (Israel), human recombinant; label: 5'-32P or Cy3. Here is the method: as §1, §3
For data set [6] the target is unchanged. Nature of the data set: EMSA; about; R-22 used as low-affinity negative control. The note with it: tags: ProSpect (Israel), human recombinant; label: 32P. As to the method: as §1, §2

B1: R-14 D-2 chimera (mixed)
RNA 1: GGGAGGACGAUGCGGAUAACUAUUGUGCUAGAGGGCUUAUUUAUGUGAGCCGGUUGAUAGUUGCGCAGACGACUCGCCCGAUUUGUGCCACAGAUGUGAAGUUCAUUUCC
RNA 2: AAAUGAACUUCACAUCUGUGGCACA
modifications: 2'-F pyrimidines in transcribed aptamer-sense strand
Take B1: the Kd in data set [1] amounted to 73 nM.

B2: R-14 D-1 chimera (mixed)
RNA 1: GGGAGGACGAUGCGGAUAACUAUUGUGCUAGAGGGCUUAUUUAUGUGAGCCGGUUGAUAGUUGCGCAGACGACUCGCCCGAUUCCACAGAUGUGAAGUUCAUUUCCAA
RNA 2: UUGGAAAUGAACUUCACAUCUGUGGCA
modifications: 2'-F pyrimidines in transcribed aptamer-sense strand
For B2, the equilibrium dissociation constant (Kd) in data set [1] worked out at 80 nM.

B3: R-1 D-2 chimera (CCND1 siRNA design 2) (mixed)
RNA 1: GGGAGGACGAUGCGGGAGGCUCAACAAUGAUAGAGCCCGCAAUGUUGAUAGUUGUGCCCAGUCUGCAGACGACUCGCCCGAUUUGUGCCACAGAUGUGAAGUUCAUUUCC
RNA 2: AAAUGAACUUCACAUCUGUGGCACA
modifications: 2'-F pyrimidines in transcribed aptamer-sense strand
For the molecule B3, the dissociation constant Kd in data set [1] came out at 126 nM.

B4: R-1 D-1-Mutated chimera (mixed)
RNA 1: GGGAGGACGAUGCGGGAGGCUCAACAAUGAUAGAGCCCGCAAUGUUGAUAGUUGUGCCCAGUCUGCAGACGACUCGCCCGAUUCUCCAGAUUCCAAGCACAUUGUGAA
RNA 2: UUCACAAUGUGCUUGGAAUCUGGAGCA
modifications: 2'-F pyrimidines in transcribed aptamer-sense strand
Consider B4, for which the Kd in data set [1] was found to be 51 nM.

B5: R-1 D-1 chimera (CCND1 siRNA design 1) (mixed)
RNA 1: GGGAGGACGAUGCGGGAGGCUCAACAAUGAUAGAGCCCGCAAUGUUGAUAGUUGUGCCCAGUCUGCAGACGACUCGCCCGAUUCCACAGAUGUGAAGUUCAUUUCCAA
RNA 2: UUGGAAAUGAACUUCACAUCUGUGGCA
modifications: 2'-F pyrimidines in transcribed aptamer-sense strand
As for B5, the Kd in data set [1] turned out to be 66 nM.

B6: R-1-STAT3 27-mer SWAP chimera (mixed)
RNA 1: GGGAGGACGAUGCGGGAGGCUCAACAAUGAUAGAGCCCGCAAUGUUGAUAGUUGUGCCCAGUCUGCAGACGACUCGCCCGAUUUUUUUUUCAGUCGUAUCUUUCUGCAGCUUCCGU
RNA 2: GGAAGCUGCAGAAAGAUACGACUGA
modifications: 2'-F pyrimidines in transcribed aptamer strand
In the case of B6, the Kd in data set [2] was found to be 56 nM.

B7: R-14 aptamer (ssRNA)
RNA: GGGAGGACGAUGCGGAUAACUAUUGUGCUAGAGGGCUUAUUUAUGUGAGCCGGUUGAUAGUUGCGCAGACGACUCGCCCGA
modifications: 2'-F pyrimidines (2'-F-C, 2'-F-U)
On to B7, for which the equilibrium dissociation constant (Kd) in data set [3] was 96 nM.

B8: R-1-STAT3 27-mer OVH chimera (mixed)
RNA 1: GGGAGGACGAUGCGGGAGGCUCAACAAUGAUAGAGCCCGCAAUGUUGAUAGUUGUGCCCAGUCUGCAGACGACUCGCCCGAUUUUUUUUGAGAACGGAAGCUGCAGAAAGAUACGA
RNA 2: GUAUCUUUCUGCAGCUUCCGUUCUC
modifications: 2'-F pyrimidines in transcribed aptamer strand
B8: the Kd in data set [2] amounted to 35 nM.

B9: R-1 aptamer (ssRNA)
RNA: GGGAGGACGAUGCGGGAGGCUCAACAAUGAUAGAGCCCGCAAUGUUGAUAGUUGUGCCCAGUCUGCAGACGACUCGCCCGA
modifications: 2'-F pyrimidines (2'-F-C, 2'-F-U)
As to B9, the Kd came to 47 nM in data set [4] and 54 nM in data set [5].

B10: R-22 D-1 chimera (mixed)
RNA 1: GGAGGACGAUGCGGAUCCUCCGAAGGUCGCGCCAACGUCACACAUUAAGCUUUUGUUCGUCUGCAGACGACUCGCCCGAUUCCACAGAUGUGAAGUUCAUUUCCAA
RNA 2: UUGGAAAUGAACUUCACAUCUGUGGCA
modifications: 2'-F pyrimidines in transcribed aptamer-sense strand
In the case of B10, the Kd in data set [6] worked out at 191 nM.
